This passage reports stoichiometry N and mass fraction of the 6-mer peak results from article PMC8012802.

Common to all, as to assay: SEC-MALS; MiniDAWN TREOS II with Superdex 200 10/300 increase, 20 mM Tris-HCl pH 8.0, 100 mM NaCl, 0.5 ml/min; monomer and 6-mer peaks
The target of test [1] is OrfG C-terminal subdomain (OrfG_(223–331): from Ala223 to Asp331) (Streptococcus thermophilus (ICESt3)).
Test [2] deals with OrfG central domain (OrfG_(64–204): from Ser64 to Ala204) (Streptococcus thermophilus (ICESt3)).
The target of test [3] is OrfG soluble domain (OrfG_(64–331): from Ser64 to Asp331) (Streptococcus thermophilus (ICESt3)).

On to “OrfG C-terminal subdomain (OrfG_(223–331): from Ala223 to Asp331) (domain or fragment)”, for which the stoichiometry N in test [1] was found to be 6.
In the case of “OrfG central domain (OrfG_(64–204): from Ser64 to Ala204) (domain or fragment)”, the stoichiometry N in test [2] is 6.
With “OrfG soluble domain (OrfG_(64–331): from Ser64 to Asp331) (domain or fragment)”, in test [3], the mass fraction of the 6-mer peak stood at 2.7% and the stoichiometry N stood at 6.

The stoichiometry N is a count of units in the complex or per binding partner.
